Bridges are numbered along the chain shown (N, C = ends). Where no end group is shown, it is not given here. DSPE = distearoylphosphatidylethanolamine; PEG3400 = polyethylene glycol, 3400 Da; PEG = not defined here
Tests used:
[1] = target: human EGFR on tumor cells (human) (UniProt P00533); assay: cell-based or functional assay
[2] = target: human EGFR on tumor cells (human) (UniProt P00533); assay: FACS, A431 cells preincubated with 2 ug EGF, 2 uM bio-P190:avidin complex, 4 °C

| Binder | IC50 D4 (ug/ml), cell killing of MDA-MB-468 cells, 1 h treatment [1] [µg/mL] | IC50 D6 (ug/ml), cell killing of MDA-MB-468 cells, 1 h treatment [1] [µg/mL] | staining, fold over background (fold over background) [2] |
| --- | --- | --- | --- |
| {DSPE-PEG3400}-DPCTWEVWGRECLQ (disulfide 3-12; not fully specified; also: inserted in liposomes) [P190-PEG-DSPE conjugate inserted in STEALTH liposomes] | 120 | 35 | – |
| DPCTWEVWGRECLQ-{PEG-biotin} (disulfide 3-12 (inferred); reading uncertain) [Biotinylated-PEGylated P190] | – | – | 20 |
